Target: TF^SBD-PPD (substrate-binding domain plus peptidyl prolyl isomerase domain of E. coli TF) (E. coli) (UniProt P0A850)
Assay: NMR relaxation dispersion

Chain of PhoA^d-e (PhoA fragment with TF-binding sites d and e) (P00634 220-310): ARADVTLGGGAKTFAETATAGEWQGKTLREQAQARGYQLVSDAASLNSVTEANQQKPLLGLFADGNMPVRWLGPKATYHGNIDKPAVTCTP

koff [s⁻¹]	residence time (1/koff) [ms]	Substance
50	20	PhoA^a-c (PhoA fragment with TF-binding sites a to c) (from UniProt P00634 1-150) (domain or fragment)
–	20	PhoA^d-e (PhoA fragment with TF-binding sites d and e) (from UniProt P00634 220-310) (domain or fragment)
